Like-named read-outs stand apart in the source and are kept apart here. Where no end group is shown, it is not given here. The star is where a group is joined. 5FAM = O=C1OC2(c3ccc(O)cc3Oc3cc(O)ccc32)c2ccc(C(=O)*)cc21
B3: CTxA_(I124-F132) peptide, 5-FAM labelled, wild-type sequence (peptide)
peptide: IYGWYRVHF
modifications: also: 5-FAM labelled, position not given here

Legend:
Assay in all cases: […]
[1] = molecular target: B3
[2] = molecular target: T1, His6-IRE1αLD (human, UniProt O75460 24-443)
T1 sequence: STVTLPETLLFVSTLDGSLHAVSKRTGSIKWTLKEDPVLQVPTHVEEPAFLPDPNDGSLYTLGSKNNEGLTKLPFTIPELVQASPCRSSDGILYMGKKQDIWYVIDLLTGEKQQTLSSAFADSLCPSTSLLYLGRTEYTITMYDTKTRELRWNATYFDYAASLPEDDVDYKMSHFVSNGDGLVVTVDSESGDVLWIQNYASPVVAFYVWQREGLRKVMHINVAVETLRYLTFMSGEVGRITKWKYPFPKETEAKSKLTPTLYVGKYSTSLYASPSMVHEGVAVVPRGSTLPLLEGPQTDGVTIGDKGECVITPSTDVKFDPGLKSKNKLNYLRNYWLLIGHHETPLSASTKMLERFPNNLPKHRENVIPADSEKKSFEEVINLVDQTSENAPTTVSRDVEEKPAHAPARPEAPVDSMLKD

[3] = molecular target: T1, His6-IRE1αLD; remark: listed apart in the source

B1: unlabeled IRE1α_(Y358-L369) peptide, wild-type sequence (peptide)
peptide: YWLLIGHHETPL
With B1 the “fold weaker affinity than either peptide alone binding to IRE1αLD” value [1] was ≥ 10 fold and the binding result [2] was “binds”.

B2: human IgG light chain variable domain (VL) peptide, 5-FAM labelled (peptide)
peptide: 5FAM-YLAWYQQKP
B2 showed a Kd [3] of 219 mM.

B3: binds [3].

B4: IRE1α_(Y358-L369) peptide, 5-FAM labelled, wild-type sequence (peptide)
peptide: 5FAM-YWLLIGHHETPL
B4 showed a Kd [3] of 0.24 mM.

Source: article PMC10996581 (The Journal of Cell Biology, 2024)
